Assay results: patent US20200369765A1 (INNATE PHARMA, published 2020)
Changes are numbered by the printed parent chain. Values belong to the binder of their own block, whether it stands above or below them.

Key:
[1] = molecular target: T1, Human Siglec-5 (human, UniProt O15389 17-551); test: flow cytometry, CHO transfectants
T1 construct: Expressed on transfected CHO cells; also called HuSiglec-5
T1 sequence: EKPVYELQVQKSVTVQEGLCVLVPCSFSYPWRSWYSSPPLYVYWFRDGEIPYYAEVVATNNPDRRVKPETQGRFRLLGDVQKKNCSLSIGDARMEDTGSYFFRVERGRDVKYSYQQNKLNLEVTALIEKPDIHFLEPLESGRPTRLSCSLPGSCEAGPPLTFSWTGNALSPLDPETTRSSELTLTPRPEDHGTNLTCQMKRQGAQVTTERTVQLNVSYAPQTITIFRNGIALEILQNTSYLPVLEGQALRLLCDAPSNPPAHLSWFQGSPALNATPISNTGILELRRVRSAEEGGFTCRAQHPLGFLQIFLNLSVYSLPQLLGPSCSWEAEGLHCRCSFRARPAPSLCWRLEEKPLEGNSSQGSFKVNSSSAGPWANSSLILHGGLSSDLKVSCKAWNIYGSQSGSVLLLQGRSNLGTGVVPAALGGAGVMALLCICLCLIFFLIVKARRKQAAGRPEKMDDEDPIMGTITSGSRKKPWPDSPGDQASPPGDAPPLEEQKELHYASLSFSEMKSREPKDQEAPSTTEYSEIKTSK

[2] = molecular target: T2, Human Siglec-10 (human, UniProt Q96LC7 17-697); test: flow cytometry, CHO transfectants
T2 construct: Expressed on transfected CHO cells; also called HuSiglec-10
T2 sequence: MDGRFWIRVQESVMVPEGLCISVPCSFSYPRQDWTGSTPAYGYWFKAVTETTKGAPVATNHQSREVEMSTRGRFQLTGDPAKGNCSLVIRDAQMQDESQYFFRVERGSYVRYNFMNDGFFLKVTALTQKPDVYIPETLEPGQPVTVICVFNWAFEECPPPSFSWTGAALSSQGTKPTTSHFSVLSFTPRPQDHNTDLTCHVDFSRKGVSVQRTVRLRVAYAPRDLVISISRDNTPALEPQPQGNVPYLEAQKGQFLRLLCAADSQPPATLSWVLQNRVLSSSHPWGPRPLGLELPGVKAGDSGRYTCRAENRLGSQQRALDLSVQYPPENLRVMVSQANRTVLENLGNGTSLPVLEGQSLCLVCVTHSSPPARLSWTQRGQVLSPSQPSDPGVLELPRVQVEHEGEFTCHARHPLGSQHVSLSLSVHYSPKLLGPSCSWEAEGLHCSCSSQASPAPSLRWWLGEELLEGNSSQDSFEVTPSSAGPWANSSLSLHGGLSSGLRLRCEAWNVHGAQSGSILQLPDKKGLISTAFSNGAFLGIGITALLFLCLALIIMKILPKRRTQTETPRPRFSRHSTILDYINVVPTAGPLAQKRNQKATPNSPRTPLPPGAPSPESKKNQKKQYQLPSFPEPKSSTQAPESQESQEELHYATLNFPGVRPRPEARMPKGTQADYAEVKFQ

[3] = molecular target: T3, Human Siglec-6 (human, UniProt O43699 27-453); test: flow cytometry, CHO transfectants
T3 construct: Expressed on transfected CHO cells; also called HuSiglec-6
T3 sequence (O43699 other isoform, or with tags, fused parts or gaps): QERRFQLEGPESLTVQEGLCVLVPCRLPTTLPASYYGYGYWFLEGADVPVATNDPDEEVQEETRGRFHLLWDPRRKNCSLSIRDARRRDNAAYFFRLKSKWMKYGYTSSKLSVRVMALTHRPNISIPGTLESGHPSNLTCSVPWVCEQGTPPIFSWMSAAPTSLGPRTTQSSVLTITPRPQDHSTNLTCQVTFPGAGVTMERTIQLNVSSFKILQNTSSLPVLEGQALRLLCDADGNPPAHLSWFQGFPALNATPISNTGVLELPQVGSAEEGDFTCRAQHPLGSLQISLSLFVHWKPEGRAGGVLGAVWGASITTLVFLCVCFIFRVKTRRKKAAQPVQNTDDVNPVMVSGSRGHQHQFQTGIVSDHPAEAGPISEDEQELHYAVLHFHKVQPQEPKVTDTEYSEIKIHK

[4] = molecular target: T4, Human Siglec-12 (human, UniProt Q96PQ1 19-595); test: flow cytometry, CHO transfectants
T4 construct: Expressed on transfected CHO cells; also called HuSiglec-12
T4 sequence (Q96PQ1 19-595): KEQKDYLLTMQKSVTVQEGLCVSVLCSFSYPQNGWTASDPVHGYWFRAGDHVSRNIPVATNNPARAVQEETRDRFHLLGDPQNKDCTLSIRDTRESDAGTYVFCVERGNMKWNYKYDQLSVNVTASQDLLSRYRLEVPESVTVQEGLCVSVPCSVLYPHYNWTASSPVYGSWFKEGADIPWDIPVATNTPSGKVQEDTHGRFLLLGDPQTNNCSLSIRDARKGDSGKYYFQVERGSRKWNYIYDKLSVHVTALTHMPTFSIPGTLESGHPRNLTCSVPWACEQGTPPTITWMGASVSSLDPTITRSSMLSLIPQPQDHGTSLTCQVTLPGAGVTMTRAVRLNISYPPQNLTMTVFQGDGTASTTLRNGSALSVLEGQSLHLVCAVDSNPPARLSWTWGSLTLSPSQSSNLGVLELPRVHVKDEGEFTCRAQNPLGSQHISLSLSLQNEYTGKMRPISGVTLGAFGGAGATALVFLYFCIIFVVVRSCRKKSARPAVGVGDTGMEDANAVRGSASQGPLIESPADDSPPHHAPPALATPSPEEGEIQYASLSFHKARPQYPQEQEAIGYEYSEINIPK

[5] = molecular target: T5, Human Siglec-3 (human, UniProt P20138 18-364); test: flow cytometry, CHO transfectants
T5 construct: Expressed on transfected CHO cells; also called HuSiglec-3; CD33
T5 sequence (P20138 18-364 R69G): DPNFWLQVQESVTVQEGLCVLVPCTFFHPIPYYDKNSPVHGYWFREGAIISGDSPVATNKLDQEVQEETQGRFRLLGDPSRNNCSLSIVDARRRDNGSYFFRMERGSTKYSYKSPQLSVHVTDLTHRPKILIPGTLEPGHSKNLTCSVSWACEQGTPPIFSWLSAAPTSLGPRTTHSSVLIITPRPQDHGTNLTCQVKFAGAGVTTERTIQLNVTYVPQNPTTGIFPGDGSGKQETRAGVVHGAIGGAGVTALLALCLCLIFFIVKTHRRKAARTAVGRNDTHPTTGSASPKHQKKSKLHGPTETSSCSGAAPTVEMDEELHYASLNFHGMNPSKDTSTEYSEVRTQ

[6] = molecular target: T6, Human Siglec-11 (human, UniProt Q96RL6 29-698); test: flow cytometry, CHO transfectants
T6 construct: Expressed on transfected CHO cells; also called HuSiglec-11
T6 sequence: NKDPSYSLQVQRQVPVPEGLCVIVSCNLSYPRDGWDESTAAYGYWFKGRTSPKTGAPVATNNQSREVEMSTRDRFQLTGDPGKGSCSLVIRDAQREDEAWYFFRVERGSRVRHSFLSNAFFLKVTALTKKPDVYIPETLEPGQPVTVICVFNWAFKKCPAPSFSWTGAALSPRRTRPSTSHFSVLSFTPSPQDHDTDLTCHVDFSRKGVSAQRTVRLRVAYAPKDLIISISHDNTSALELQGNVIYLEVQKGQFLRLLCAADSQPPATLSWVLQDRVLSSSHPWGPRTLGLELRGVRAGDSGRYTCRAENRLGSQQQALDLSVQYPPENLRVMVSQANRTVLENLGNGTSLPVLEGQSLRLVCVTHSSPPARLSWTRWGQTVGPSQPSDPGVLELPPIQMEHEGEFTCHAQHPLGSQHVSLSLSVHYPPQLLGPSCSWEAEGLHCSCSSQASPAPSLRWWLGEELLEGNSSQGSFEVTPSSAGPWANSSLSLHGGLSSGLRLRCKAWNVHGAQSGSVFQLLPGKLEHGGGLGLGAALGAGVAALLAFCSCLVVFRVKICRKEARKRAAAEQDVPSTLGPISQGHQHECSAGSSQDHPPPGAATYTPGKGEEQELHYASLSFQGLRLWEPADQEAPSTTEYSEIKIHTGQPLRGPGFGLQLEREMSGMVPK

[7] = molecular target: T7, Human Siglec-8 (human, UniProt Q9NYZ4 17-499); test: flow cytometry, CHO transfectants
T7 construct: Expressed on transfected CHO cells; also called HuSiglec-8
T7 sequence (Q9NYZ4 17-499): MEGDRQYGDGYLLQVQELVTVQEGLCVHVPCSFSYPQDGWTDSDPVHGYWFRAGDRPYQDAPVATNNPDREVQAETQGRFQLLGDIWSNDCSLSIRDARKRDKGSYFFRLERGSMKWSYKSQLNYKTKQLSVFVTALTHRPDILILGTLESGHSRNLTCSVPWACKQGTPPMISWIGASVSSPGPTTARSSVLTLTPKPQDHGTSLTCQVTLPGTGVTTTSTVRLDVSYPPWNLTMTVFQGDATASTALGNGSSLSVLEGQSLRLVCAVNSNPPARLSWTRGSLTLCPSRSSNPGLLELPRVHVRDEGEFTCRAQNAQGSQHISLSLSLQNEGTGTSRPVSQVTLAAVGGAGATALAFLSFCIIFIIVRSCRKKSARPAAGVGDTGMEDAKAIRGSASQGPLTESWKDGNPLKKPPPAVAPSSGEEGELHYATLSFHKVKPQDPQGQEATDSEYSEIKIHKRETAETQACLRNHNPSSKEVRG

[8] = molecular target: T8, Cynomolgus Siglec (cynomolgus); test: flow cytometry, CHO transfectants
T8 construct: Expressed on transfected CHO cells; also called Siglec-Cyno; cynoSiglec
T8 sequence (chain, as listed by the source limits assumed): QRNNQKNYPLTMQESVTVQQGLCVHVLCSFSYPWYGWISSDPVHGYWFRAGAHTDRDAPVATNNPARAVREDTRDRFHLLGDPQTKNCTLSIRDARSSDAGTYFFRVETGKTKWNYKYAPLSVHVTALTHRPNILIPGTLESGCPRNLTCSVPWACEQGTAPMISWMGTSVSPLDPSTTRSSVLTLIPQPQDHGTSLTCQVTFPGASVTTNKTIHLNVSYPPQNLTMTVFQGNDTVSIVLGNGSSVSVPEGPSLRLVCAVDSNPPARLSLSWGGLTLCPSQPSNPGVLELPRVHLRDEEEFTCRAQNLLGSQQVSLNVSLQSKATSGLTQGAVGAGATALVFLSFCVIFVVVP
Description: (§1) Binding of antibodies on human Siglec-7, human Siglec-9 and Cynomolgus Siglec-9 was tested by titration experiment by flow cytometry on CHO cells transfected with human Siglec-7 and human Siglec-9 and Cynomolgus Siglec-9. Cells were incubated 1h in Staining Buffer (SB) with primary antibodies at 20 ug/ml and a series of dilution of 1:5. They were washed three times with SB, then incubated 30 min with a goat F(ab′)² Anti-human IgG (Fc) PE (Beckman Coulter #1M05510), and washed twice with SB.

[9] = molecular target: T9, Human Siglec-9 (human, UniProt Q9Y336 18-463); test: flow cytometry, CHO transfectants
T9 construct: On transfected CHO cells; also on YTS and KHYG-1 transfectants, primary NK cells and moDC; also called huSiglec-9; CD329
T9 sequence (Q9Y336 18-463): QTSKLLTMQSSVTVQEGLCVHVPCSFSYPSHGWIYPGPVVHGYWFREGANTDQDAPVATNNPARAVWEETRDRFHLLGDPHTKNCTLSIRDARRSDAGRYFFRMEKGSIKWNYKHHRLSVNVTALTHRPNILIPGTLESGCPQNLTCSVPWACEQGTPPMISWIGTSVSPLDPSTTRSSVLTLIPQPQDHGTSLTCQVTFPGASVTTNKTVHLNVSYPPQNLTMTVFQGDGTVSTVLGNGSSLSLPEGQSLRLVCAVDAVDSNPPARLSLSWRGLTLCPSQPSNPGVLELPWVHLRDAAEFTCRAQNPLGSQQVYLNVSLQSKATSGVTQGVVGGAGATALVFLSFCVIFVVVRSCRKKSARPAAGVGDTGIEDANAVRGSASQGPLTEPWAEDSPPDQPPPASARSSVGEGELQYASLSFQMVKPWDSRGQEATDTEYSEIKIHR
Description: as §1

[10] = molecular target: T10, Human Siglec-7 (human, UniProt Q9Y286 19-467); test: flow cytometry, CHO transfectants
T10 construct: Expressed on transfected CHO cells; also called huSiglec-7; CD328
T10 sequence (Q9Y286 19-467): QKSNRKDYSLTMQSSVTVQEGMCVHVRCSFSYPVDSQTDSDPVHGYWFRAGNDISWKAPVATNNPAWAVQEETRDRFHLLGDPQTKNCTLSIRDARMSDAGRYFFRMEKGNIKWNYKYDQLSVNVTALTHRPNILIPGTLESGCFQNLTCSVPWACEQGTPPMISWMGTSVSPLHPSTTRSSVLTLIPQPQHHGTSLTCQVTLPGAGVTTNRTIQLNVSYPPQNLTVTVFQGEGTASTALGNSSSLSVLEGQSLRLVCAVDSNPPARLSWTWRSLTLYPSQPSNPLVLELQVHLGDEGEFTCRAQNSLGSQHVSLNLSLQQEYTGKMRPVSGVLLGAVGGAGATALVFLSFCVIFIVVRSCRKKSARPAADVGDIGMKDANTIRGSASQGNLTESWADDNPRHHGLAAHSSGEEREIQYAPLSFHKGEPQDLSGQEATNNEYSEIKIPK
Description: as §1

[11] = molecular target: T11, Human Siglec-9 mutant M8 (human, UniProt Q9Y336 18-463); test: flow cytometry, HEK293T transfectants
T11 construct: Expressed on HEK293T cells; also called Mutant 8
T11 sequence (Q9Y336 other isoform, or with tags, fused parts or gaps mutant): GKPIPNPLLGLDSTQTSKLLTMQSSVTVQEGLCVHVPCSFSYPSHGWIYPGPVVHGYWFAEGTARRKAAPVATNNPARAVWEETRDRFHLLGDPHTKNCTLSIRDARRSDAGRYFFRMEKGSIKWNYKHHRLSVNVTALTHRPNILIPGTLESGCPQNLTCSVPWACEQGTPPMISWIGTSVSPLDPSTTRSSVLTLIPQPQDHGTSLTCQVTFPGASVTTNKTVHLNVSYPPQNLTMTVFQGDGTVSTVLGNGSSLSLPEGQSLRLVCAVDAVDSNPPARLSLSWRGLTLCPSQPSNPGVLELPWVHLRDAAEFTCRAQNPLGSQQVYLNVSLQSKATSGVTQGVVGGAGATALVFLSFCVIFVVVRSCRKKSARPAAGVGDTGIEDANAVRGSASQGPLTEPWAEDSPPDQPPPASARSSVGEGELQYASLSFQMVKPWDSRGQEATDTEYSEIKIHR

[12] = molecular target: T12, Human Siglec-9 N-terminal V-set Ig-like domain (human); test: flow cytometry, HEK293T cells expressing single Siglec-9 domains
T12 construct: expressed on HEK293T cells
T12 sequence (chain, as listed by the source limits assumed): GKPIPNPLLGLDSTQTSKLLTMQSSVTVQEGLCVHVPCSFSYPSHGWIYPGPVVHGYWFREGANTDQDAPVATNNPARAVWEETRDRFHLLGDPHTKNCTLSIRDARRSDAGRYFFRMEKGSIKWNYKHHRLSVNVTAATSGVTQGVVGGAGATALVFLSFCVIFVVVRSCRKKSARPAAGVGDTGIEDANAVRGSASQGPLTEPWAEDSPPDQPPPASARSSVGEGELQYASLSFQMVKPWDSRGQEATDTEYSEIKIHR

binding result [1]: no binding | binding result [2]: no binding | binding result [3]: no binding | binding result [4]: no binding | binding result [5]: no binding | binding result [6]: no binding | binding result [7]: no binding | EC50 [8]: 0.14 µg/mL | EC50 [9]: 0.26 µg/mL | EC50 [10]: 0.22 µg/mL
B1: mAb5 (antibody, human IgG1, V domains shown)
VH: EIQLQQSGPELEKPGASVKISCKASGYSFSDYNMNWVKQSNGKSLEWIGNIDPYYGATSYNQRFKGKATLTVDKSSSTAYMQLKSLTSEDSAVYYCARGDSLFAYWGHGTLVTVSA
VL: DIVMTQSQEFMSTSLGDRVSVTCKASQNVGTNVAWYQQKPGQSPKALLYSASSRYSGVPDRFTGSGSGTDFTLTISNVQSEDLAEYFCQQYITYPYTFGGGTKLEIK

binding result [1]: no binding | binding result [2]: no binding | binding result [3]: no binding | binding result [4]: no binding | binding result [5]: no binding | binding result [6]: no binding | binding result [7]: no binding | EC50 [8]: 0.17 µg/mL | EC50 [9]: 0.31 µg/mL | EC50 [10]: 0.33 µg/mL
B2: mAb6 (antibody, human IgG1, V domains shown)
VH: B1 VH with H108Q
VL: B1 VL with S76N, V78M

binding result [1]: no binding | binding result [2]: no binding | binding result [3]: no binding | binding result [4]: no binding | binding result [5]: no binding | binding result [6]: no binding | binding result [7]: no binding | EC50 [8]: 0.17 µg/mL | EC50 [9]: 0.28 µg/mL | EC50 [10]: 0.17 µg/mL
B3: mAb4 (antibody, human IgG1, V domains shown)
VH: DVQLVESGGDLVKPGGSLKLSCAASGFAFSSYDMSWVRQSPEKRLEWIAHIGSGGGNIYYPDTVKGRFTISRDNAKNTLYLQMRSLKSEDTAMYYCARLIFTTGFYGMDYWGQGTSVTVSS
VL: DIQMTQTTSSLSASLGDRVTISCRASQDISSYLNWYQQKPDGTIKLLIYYTSRLHSGVPSRFSGSGSGTDYSLTISNLDQDDIATYFCQQGNALPWTFGGGTKLEIK

binding result [11]: binds | binding result [1]: no binding | binding result [2]: no binding | binding result [3]: no binding | binding result [4]: no binding | binding result [5]: no binding | binding result [6]: no binding | binding result [7]: no binding | binding result [12]: binds
B4: mAbB (antibody, human IgG1, V domains shown)
VH: QVQLQQPGAELVKPGASVKLSCKASVYTFTSYWMHWVKQRPGQGLEWIGEINPSNGHTNYNEKFKTKAKLTVDKSSSTAYMQLSSLTSEDSAVYFCANGVETYDFDDAMDYWGQGTSVTVSS
VL: B3 VL with S30N, S31N, I44V, Y50F, D79E, D81E, N92D, A93T, L94F, W96F

binding result [11]: binds | binding result [1]: no binding | binding result [2]: no binding | binding result [3]: no binding | binding result [4]: binds | binding result [5]: no binding | binding result [6]: no binding | binding result [7]: no binding | EC50 [8]: 0.67 µg/mL | EC50 [9]: 0.11 µg/mL | EC50 [10]: 0.21 µg/mL | binding result [12]: binds
B5: mAb1 (antibody, human IgG1, V domains shown)
VH: DVQLQESGPGLVKPSQSLSLTCTVTGYSITGGFAWNWIRQFPGNTLEWMGYIGYGGSTSYNPSLNSRISITRDTSKNHFFLQFNSVTTDDSATYYCARGDYLFAYWGQGTLVTVSA
VL: DIVMTQSHKFMSTSVGDRVSITCKASQDVNTAVAWYQQKPGQSPKLLIYSASYRYTGVPDRFTGSGSGTDFTFTISSVQAEDLAVYYCQQHYSTPRTFGGGTKLEIK

binding result [11]: binds | binding result [1]: no binding | binding result [2]: no binding | binding result [3]: no binding | binding result [4]: binds | binding result [5]: no binding | binding result [6]: no binding | binding result [7]: no binding | EC50 [8]: 0.85 µg/mL | EC50 [9]: 0.23 µg/mL | EC50 [10]: 0.22 µg/mL | binding result [12]: binds
B6: mAb3 (antibody, human IgG1, V domains shown)
VH: B5 VH with D1E, Q5L, S7T, D89E
VL: DILMTQSPASLSASVGETVSITCRASGNIHNYLAWYLQRQGKSPQLLVYNAKTLADGVPSRFSGTGSGTQFSLKINSLQPEDFGSYYCQHFWSTPRTFGGGTKLEIK

binding result [11]: binds | binding result [1]: no binding | binding result [2]: no binding | binding result [3]: no binding | binding result [4]: binds | binding result [5]: no binding | binding result [6]: no binding | binding result [7]: no binding | EC50 [8]: 0.53 µg/mL | EC50 [9]: 0.08 µg/mL | EC50 [10]: 0.17 µg/mL | binding result [12]: binds
B7: mAb2 (antibody, human IgG1, V domains shown)
VH: B5 VH with D1E, D89E
VL: B5 VL
